Biological target: major capsid protein VP1 of sheep polyomavirus (ShPyV) (sheep polyomavirus (ShPyV))
Experiment: crystal structure

“major capsid protein VP1 of sheep polyomavirus (ShPyV) (natural protein)” showed a stoichiometry N of 5.
